Laboratory results from article PMC4050190.
Several values for one entry are separate records, joined by “and”; a condition that tells them apart may be missing. Equal values may be shown once.

Molecular target: 6x His-p10 (pRSF duet, first multiple cloning site) (Sesbania mosaic virus)

For “untagged SeMV RdRp (pRSF duet) (domain or fragment)”, the in vitro RdRp assay (incorporation of αP32 UTP, filter binding, 2 μg protein, 30 °C, 1 h): activity of the RdRp-p10 complex against RdRp alone was 5 fold and 6 fold.
